In publication PMC5778112:

Key:
[1] = biological target: VLA-4 (α4β1, CD49d/CD29) (human (endogenous in Jurkat and primary human CD4+ T cells)) (UniProt P13612)
[2] = biological target: VLA-4 (α4β1, CD49d/CD29) (human (endogenous in Jurkat and primary human CD4+ T cells)) (UniProt P13612); remark: listed apart in the source

UniProt P13612, sequence (P13612 34-1032, chain 1 of 2): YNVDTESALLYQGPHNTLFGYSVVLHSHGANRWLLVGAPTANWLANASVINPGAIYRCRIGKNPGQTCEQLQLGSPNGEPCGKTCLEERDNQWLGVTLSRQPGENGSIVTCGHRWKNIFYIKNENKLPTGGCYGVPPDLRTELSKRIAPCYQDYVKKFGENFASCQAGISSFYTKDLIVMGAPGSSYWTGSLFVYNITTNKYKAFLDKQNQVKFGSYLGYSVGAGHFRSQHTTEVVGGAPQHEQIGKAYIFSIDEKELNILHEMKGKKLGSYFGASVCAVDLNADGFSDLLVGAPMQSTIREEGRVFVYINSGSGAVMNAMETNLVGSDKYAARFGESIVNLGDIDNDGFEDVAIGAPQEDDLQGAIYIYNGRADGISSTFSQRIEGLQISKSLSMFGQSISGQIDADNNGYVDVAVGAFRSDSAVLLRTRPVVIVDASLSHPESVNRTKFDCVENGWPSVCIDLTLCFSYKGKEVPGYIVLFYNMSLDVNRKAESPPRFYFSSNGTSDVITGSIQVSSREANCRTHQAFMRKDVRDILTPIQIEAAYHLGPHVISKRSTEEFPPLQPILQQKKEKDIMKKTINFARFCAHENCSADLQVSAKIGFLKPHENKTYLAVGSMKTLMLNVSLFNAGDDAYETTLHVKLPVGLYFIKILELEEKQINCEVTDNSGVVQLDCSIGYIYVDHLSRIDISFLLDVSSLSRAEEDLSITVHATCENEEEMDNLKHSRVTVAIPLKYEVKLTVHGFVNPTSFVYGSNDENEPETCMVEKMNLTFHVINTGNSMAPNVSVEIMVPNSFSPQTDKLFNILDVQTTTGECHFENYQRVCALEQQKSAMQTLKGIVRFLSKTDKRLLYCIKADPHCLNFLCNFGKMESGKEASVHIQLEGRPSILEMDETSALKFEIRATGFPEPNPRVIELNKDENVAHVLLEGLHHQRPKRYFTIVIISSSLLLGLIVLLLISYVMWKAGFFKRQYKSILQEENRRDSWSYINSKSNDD
UniProt P13612, sequence (P05556 21-798, chain 2 of 2, further chain): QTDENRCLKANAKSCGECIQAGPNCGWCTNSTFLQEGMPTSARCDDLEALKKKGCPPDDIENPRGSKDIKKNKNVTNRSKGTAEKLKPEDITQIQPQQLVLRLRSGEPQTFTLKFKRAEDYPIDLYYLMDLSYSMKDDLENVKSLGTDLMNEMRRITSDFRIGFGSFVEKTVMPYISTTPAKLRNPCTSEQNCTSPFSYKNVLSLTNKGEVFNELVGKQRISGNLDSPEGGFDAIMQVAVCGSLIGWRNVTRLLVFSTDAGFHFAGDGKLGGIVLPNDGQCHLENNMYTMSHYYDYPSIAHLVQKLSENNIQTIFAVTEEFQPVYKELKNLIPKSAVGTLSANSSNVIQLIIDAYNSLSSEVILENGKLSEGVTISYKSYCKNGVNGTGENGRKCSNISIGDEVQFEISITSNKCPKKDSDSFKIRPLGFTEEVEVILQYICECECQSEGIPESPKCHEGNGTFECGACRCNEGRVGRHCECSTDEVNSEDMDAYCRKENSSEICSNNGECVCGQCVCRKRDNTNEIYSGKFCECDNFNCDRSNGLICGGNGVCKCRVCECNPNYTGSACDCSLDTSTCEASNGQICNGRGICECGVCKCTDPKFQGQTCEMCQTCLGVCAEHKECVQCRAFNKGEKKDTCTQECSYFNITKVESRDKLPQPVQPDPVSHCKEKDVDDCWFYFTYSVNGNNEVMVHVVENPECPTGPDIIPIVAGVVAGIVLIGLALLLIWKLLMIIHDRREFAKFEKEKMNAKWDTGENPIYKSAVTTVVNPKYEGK

B1: human VCAM-1-Fc chimera (Fc fusion)
chain: FKIETTPESRYLAQIGDSVSLTCSTTGCESPFFSWRTQIDSPLNGKVTNEGTTSTLTMNPVSFGNEHSYLCTATCESRKLEKGIQVEIYSFPKDPEIHLSGPLEAGKPITVKCSVADVYPFDRLEIDLLKGDHLMKSQEFLEDADRKSLETKSLEVTFTPVIEDIGKVLVCRAKLHIDEMDSVPTVRQAVKELQVYISPKNTVISVNPSTKLQEGGSVTMTCSSEGLPAPEIFWSKKLDNGNLQHLSGNATLTLIAMRMEDSGIYVCEGVNLIGKNRKEVELIVQEKPFTVEISPGPRIAAQIGDSVMLTCSVMGCESPSFSWRTQIDSPLSGKVRSEGTNSTLTLSPVSFENEHSYLCTVTCGHKKLEKGIQVELYSFPRDPEIEMSGGLVNGSSVTVSCKVPSVYPLDRLEIELLKGETILENIEFLEDTDMKSLENKSLEMTFIPTIEDTGKALVCQAKLHIDDMEFEPKQRQSTQTLYVNVAPRDTTVLVSPSSILEEGSSVNMTCLSQGFPAPKILWSRQLPNGELQPLSENATLTLISTKMEDSGVYLCEGINQAGRSRKEVELIIQVTPKDIKLTAFPSESVKEGDTVIISCTCGNVPETWIILKKKAETGDTVLKSIDGAYTIRKAQLKDAGVYECESKNKVGSQLRSLTLDVQGRENNKDYFSPE
modifications: labeled with AF-647 for patterning
- actin flow rate in the lamellipodial region of Jurkat T cells (GFP-actin) spreading on coverslips coated with anti-CD3 + VCAM-1 (85–95 nm/s on anti-CD3 alone) [1]: 15 nm/s

B2: His-tagged human VCAM-1 Fc (Fc fusion)
chain: FKIETTPESRYLAQIGDSVSLTCSTTGCESPFFSWRTQIDSPLNGKVTNEGTTSTLTMNPVSFGNEHSYLCTATCESRKLEKGIQVEIYSFPKDPEIHLSGPLEAGKPITVKCSVADVYPFDRLEIDLLKGDHLMKSQEFLEDADRKSLETKSLEVTFTPVIEDIGKVLVCRAKLHIDEMDSVPTVRQAVKELQVYISPKNTVISVNPSTKLQEGGSVTMTCSSEGLPAPEIFWSKKLDNGNLQHLSGNATLTLIAMRMEDSGIYVCEGVNLIGKNRKEVELIVQEKPFTVEISPGPRIAAQIGDSVMLTCSVMGCESPSFSWRTQIDSPLSGKVRSEGTNSTLTLSPVSFENEHSYLCTVTCGHKKLEKGIQVELYSFPRDPEIEMSGGLVNGSSVTVSCKVPSVYPLDRLEIELLKGETILENIEFLEDTDMKSLENKSLEMTFIPTIEDTGKALVCQAKLHIDDMEFEPKQRQSTQTLYVNVAPRDTTVLVSPSSILEEGSSVNMTCLSQGFPAPKILWSRQLPNGELQPLSENATLTLISTKMEDSGVYLCEGINQAGRSRKEVELIIQVTPKDIKLTAFPSESVKEGDTVIISCTCGNVPETWIILKKKAETGDTVLKSIDGAYTIRKAQLKDAGVYECESKNKVGSQLRSLTLDVQGRENNKDYFSPE
- actin flow rate in the lamellipodial region of Jurkat T cells on supported lipid bilayers with mobile anti-CD3 + VCAM-1 [2]: 60 nm/s
